In this series the test system is MS2 coat protein. As to the kind of experiment: apparent KD of MS2 coat protein; designed switch direction (-1 OFF switch, 1 ON switch): -1; higher = weaker reporter binding. The method in brief: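 Transcription of designed RNA switches on Illumina chips was done by stalled E. coli RNA polymerase. SNAP-549-labelled MS2 coat protein was then titrated in doubling steps from 0.7 or 1.5 nM to 3 µM, with steps of 0.8–1.5 h at the lowest and 10–20 min at the highest concentration. The per-design median over clusters of curve-fitted normalised fluorescence is reported as apparent KD.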

Setting [1] is: Eterna round: R95, input ligand: FMN 200 uM.
[2] abbreviates: Eterna round: R95, input ligand: microRNA oligo, concentration not stated.
Where [3] appears, read: Eterna round: R95, input ligand: none.
The mark [4] stands for this setting: input ligand: microRNA oligo, concentration not stated.

“GAUUAGGUAGGAUAUACGUAGUGAGCCAGCGAGAGCUGGUAACAUGAGGAUCACCCAUGUAGAAGGACCAUUAA [Xeorqulaus] (Eterna round: R97, puzzle: Exclusion 2)”: the “apparent KD of MS2 coat protein” value (input ligand: FMN 200 uM) turned out to be 145 nM and the “apparent KD of MS2 coat protein” value (input ligand: none) was 72.4 nM.
In the case of “GAUUAGUGAGGAUAUGGUAAAGAUAAGAUGAUGAAAGAACUCCAGAAGGCACAUGAGGAUCACCCAUGUAGUAG [Mat - Exclusion 4 - Mod of JL - D21] (puzzle: Exclusion 4)”, the “apparent KD of MS2 coat protein” value by setting is: under setting [1], 17.1 nM; under setting [2], 20.4 nM; under setting [3], 20.1 nM.
As for “GAUUAUGCAAGCUUUCGGGACAUGAGGAUCACCCAUGUUCGUCUUAUUGAUCUAGGUACGCUGACGUACCUAGAUCU [JL-sv1-2.33 Brourd mod] (puzzle: Sensor v3, turn-off variant 1)”, the “apparent KD of MS2 coat protein” value came out at 17 nM under setting [1] and 65.2 nM under setting [2].
For “GAUUAUGCGAGCUUUAGGGACAUGAGGAUCACCCAUGUUCGUCUUAUUAAUCUAGGUACGCUGACAUACCUAAAUCU [JMF 98] (puzzle: Sensor v3, turn-off variant 1)”, the “apparent KD of MS2 coat protein” value was 21.6 nM under setting [1], 30 nM under setting [2] and 20.6 nM under setting [3].
Consider “GAUUAUGCGAGCUUUAGGGACAUGAGGAUCACCCAUGUUCGUCUUAUUAGUCUGGGUACGCUAACAUACCUAAAUCU [JMF 43] (puzzle: Sensor v3, turn-off variant 1)”, for which the “apparent KD of MS2 coat protein” value was 30.1 nM under setting [1], 41.4 nM under setting [2] and 28.7 nM under setting [3].
On the same counts, the results for “GAUUAUGCGAGCUUUAGGGACAUGAGGAUCACCCAUGUUCGUCUUAUUGGUCUAGGUGCACUAACAUACCUAAAUCU [JMF 36] (puzzle: Sensor v3, turn-off variant 1)” are 22.3 nM, 33.7 nM and 23.6 nM.
On the same counts, the results for “GAUUAUGCGAGCUUUAGGGACAUGAGGAUCACCCAUGUUCGUCUUAUUGGUCUGGAUACACUAACAUACCUAAAUCU [JMF 14] (puzzle: Sensor v3, turn-off variant 1)” are 19.2 nM, 27.9 nM and 21.2 nM.
Take “GAUUGACAUGAGGAUCACCCAUGUGAGGAUAUCGGCCGGACCUUGUUAGCUUCCAUCGCGAGAAGGUACAUAGG [Exclusion 1 V34] (puzzle: Exclusion 1)”: under setting [2], the “apparent KD of MS2 coat protein” value turned out to be 16.9 nM.
As for “GAUUGACAUGAGGAUCACCCAUGUGAGGAUAUCGGCUGGACCGUGUUGGCUUGCUUUCCGAGAAGGCGCAUAGG [Exclusion 1 V50] (puzzle: Exclusion 1)”, the “apparent KD of MS2 coat protein” value by setting is: under setting [1], 81.7 nM; under setting [2], 36.9 nM; under setting [3], 45.9 nM.
For “GAUUGAGAGCAGGAUAUCAUAGAAAUGUAUGAAUGAGAAGGGCUCACAUGAGGAUCACCCAUGUGGUCCUAGAU [JL Dibiri mod 18] (puzzle: Exclusion 6)”, under setting [2], the “apparent KD of MS2 coat protein” value amounted to 21.9 nM.
Turning to “GAUUUACAUGAGGAUCACCCAUGUGAGGAUAUAUUGUUAUUUUUAAUAUUUUUUAGUGGUAGAAGGCGCGUGAU [JR_Exc1_Sub016] (Eterna round: R97, puzzle: Exclusion 1)”, the “apparent KD of MS2 coat protein” value is 24.2 nM (input ligand: FMN 200 uM) and 26.9 nM (input ligand: none).
“GCAAAAUAUCAGGAUAUGACUAAUUGCGUUAAGUCAGAAGGGAUAACAUGAGGAUCACCCAUGUGAUAUAGUGU [JR_Ex6_Sub030] (Eterna round: R97, puzzle: Exclusion 6)”: the “apparent KD of MS2 coat protein” value by setting is: (input ligand: FMN 200 uM) 237 nM; (input ligand: none) 169 nM.
Take “GCAAGUUUUUUGUUUUUUAACAUGAGGAUCACCCAUGUAUUUUUAUAGUAUGUGUGAAUAAGAUCUCGUGGUCUUAG [JR_SV3TOV1_Sub100] (puzzle: Sensor v3, turn-off variant 1)”: the “apparent KD of MS2 coat protein” value reads like this: under setting [1], 73.3 nM; under setting [2], 203 nM; under setting [3], 77.2 nM.
In the case of “GCACGCAAAGGAUAUCGGAAAGAAAACAUGAGGAUCACCCAUGUAUAUAUCAAAUGGGUGCGAGAAGGUUGAGUGA [Xeleonge] (puzzle: Exclusion 5)”, the “apparent KD of MS2 coat protein” value was found to be 192 nM under setting [1], 60 nM under setting [2] and 94 nM under setting [3].
Take “GCACGGAGUGUAGGAUAUUAGUGCGAUUAGCACUGAGAAGGACAUGAGGAUCACCCAUGUUCCUCAAUAAAAUACCUUCCGUGC [Eli exng1 - 040] (Eterna round: R96, puzzle: Exclusion NG 1)”: the “apparent KD of MS2 coat protein” value is, setting by setting: (input ligand: FMN 200 uM) 13.4 nM; under setting [4], 10 nM; (input ligand: none) 13.7 nM.
For “GCACGGAUUGUAGGAUAUCUGUGCGAUUAGCUCAGAGAAGGACACAUGAGGAUCACCCAUGUUACCUCAAUUGGCCUUCCGUGC [Eli exng1 - 031] (Eterna round: R96, puzzle: Exclusion NG 1)”, the “apparent KD of MS2 coat protein” value by setting is: (input ligand: FMN 200 uM) 128 nM; under setting [4], 70.7 nM; (input ligand: none) 116 nM.
Turning to “GCACGGUUGCUAGGAUAUCCUUGCGAUUAGCAAGGAGAAGGAGCACAUGAGGAUCACCCAUGUACCUCAAUAAUCCUUCCGUGC [Eli exng1 - 028] (Eterna round: R96, puzzle: Exclusion NG 1)”, the “apparent KD of MS2 coat protein” value runs as follows: (input ligand: FMN 200 uM) 12.9 nM; under setting [4], 13.2 nM; (input ligand: none) 15.6 nM.
“GCACUGCGAGGAUAUACAUGAGGAUCACCCAUGUAUCGGUAGUCAAGGUUAAUUUAAGGUAGAAGGCGCGUAUU [JR_Ex3_Sub006] (Eterna round: R97, puzzle: Exclusion 3)”: the “apparent KD of MS2 coat protein” value (input ligand: FMN 200 uM) worked out at 23.9 nM and the “apparent KD of MS2 coat protein” value (input ligand: none) was 22.7 nM.
Take “GCACUGGCAGGAUAUACAUGAGGAUCACCCAUGUGAUCCCUUAGGUACAAAAGUACCAGUAGAAGGGCCUGUGC [Omei Ex3 Model Bachelor's Dilema v50] (Eterna round: R97, puzzle: Exclusion 3)”: the “apparent KD of MS2 coat protein” value by setting is: (input ligand: FMN 200 uM) 315 nM; (input ligand: none) 564 nM.
For “GCAGAAAGUGUAGGAUAUCUAAUAAAGCGGAAACGCAAGACAUGAGGAUCACCCAUGUGUCCGGAAGAGAAGGGCAAAAGCUGC [EXNG2 V2 c] (Eterna round: R96, puzzle: Exclusion NG 2)”, the “apparent KD of MS2 coat protein” value is, setting by setting: (input ligand: FMN 200 uM) 26.6 nM; under setting [4], 22.7 nM; (input ligand: none) 38.2 nM.
Regarding “GCAGAAUGAGUUAGGAUAUGAUGAUUUUUUUUAUAUCAGAAGGAACUUGAGGAUCACCCAAGUUAAGAUAGGGU [JR_BMEx4_Sub067] (Eterna round: R97, puzzle: Brourd's mod of Exclusion 4)”, the “apparent KD of MS2 coat protein” value by setting is: (input ligand: FMN 200 uM) 89.2 nM; (input ligand: none) 138 nM.
As for “GCAGCAACUCUAAUCAACUAAACAUGAGGAUCACCCAUGUCUCAGGAUAUGGUCUGGAUUACAGGCCAGAAGGGAGAAAGCUGC [Eli exng3 - 043] (Eterna round: R96, puzzle: Exclusion NG 3)”, the “apparent KD of MS2 coat protein” value (input ligand: FMN 200 uM) was found to be 16.2 nM, the “apparent KD of MS2 coat protein” value under setting [4] amounted to 11.2 nM and the “apparent KD of MS2 coat protein” value (input ligand: none) amounted to 12.3 nM.
On the same counts, the results for “GCAGCAUAGUCGGAAUACGACAUACAUGAGGAUCACCCAUGUCAGGAUAUGGUCUGGAUUACAGGCCAGAAGGGACGAAGCUGC [Eli exng3 - 006] (Eterna round: R96, puzzle: Exclusion NG 3)” are 18.4 nM, 17.6 nM and 21.5 nM.
For the sequence “GCAGGAUAAGUGAGGAUAUACCUAUGGAUACAUAGGUAGAAGGCACAUGAGGAUCACCCAUGUUCCUUGCCUGC [Fiskers BMX 4 - 67] (puzzle: Brourd's mod of Exclusion 4)”, the “apparent KD of MS2 coat protein” value under setting [2] worked out at 13.2 nM.
Turning to “GCAGGAUAAGUGAGGAUAUACCUAUGGAUACAUAGGUAGAAGGUACAUGAGGAUCACCCAUGUUCCUUACCUGC [Fiskers BMX 4 - 65] (puzzle: Brourd's mod of Exclusion 4)”, the “apparent KD of MS2 coat protein” value under setting [2] is 11.7 nM.
In the case of “GCAGGCUUUUGCUCGCCUUACAUGAGGAUCACCCAUGUGGGCCCGGGCCCGGGCCCGCCGGGCCCGGGCCCGGGCCC (Eterna round: R97, puzzle: Sensor, turn-off variant 1)”, the “apparent KD of MS2 coat protein” value runs as follows: (input ligand: FMN 200 uM) 30.8 nM; (input ligand: none) 32.1 nM.
With “GCAGGUCAAGGAUAUACAUGAGGAUCACCCAUGUAGAUCAACCAGCGAUAGCUGGAAUGUAGAAGGUGACCUGC [E3/5-C2] (Eterna round: R97, puzzle: Exclusion 3)”, the “apparent KD of MS2 coat protein” value (input ligand: FMN 200 uM) stood at 67.6 nM and the “apparent KD of MS2 coat protein” value (input ligand: none) was 23.7 nM.
For “GCAUGAAUGUAGGAUAUCUGUAGGGCCCGGACCAGAGAAGGACGCACAUGAGGAUCACCCAUGUCUUGAUGAUC [Eternabot (L1) Solution 15] (Eterna round: R97, puzzle: Exclusion 6)”, the “apparent KD of MS2 coat protein” value (input ligand: FMN 200 uM) is 540 nM and the “apparent KD of MS2 coat protein” value (input ligand: none) is 239 nM.
As for “GCAUGGUGAGGAUAUGCAGAAGGGCAACGGUCAUCAUGACUACAUGAGGAUCACCCAUGUAGAAGGCACACAUG [Betearor] (puzzle: Exclusion 2)”, the “apparent KD of MS2 coat protein” value under setting [2] is 42.5 nM.
On to “GCAUGUCAGUAGGAUAUGCAGCACUUGAUACCUGCAGAAGGACUGACAUGAGGAUCACCCAUGUCUCGGGUGCU [EX6 A.10] (Eterna round: R97, puzzle: Exclusion 6)”, for which the “apparent KD of MS2 coat protein” value by setting is: (input ligand: FMN 200 uM) 16.8 nM; (input ligand: none) 149 nM.
Consider “GCAUUGAGUGUGAGGAUAUGCUGGUCGUAAGAUCAGCAGAAGGCACAUGAGGAUCACCCAUGUGAAAACAAUGC [Mat - Exclusion 4 - JL Mod - D67] (puzzle: Brourd's mod of Exclusion 4)”, for which the “apparent KD of MS2 coat protein” value by setting is: under setting [1], 125 nM; under setting [2], 23 nM; under setting [3], 23.4 nM.

Values taken from the supplement of paper PMC9170038.
